B1: VEGF-B (ligand, UniProt P49765 22-207, looked up)
chain: PVSQPDAPGHQRKVVSWIDVYTRATCQPREVVVPLTVELMGTVAKQLVPSCVTVQRCGGCCPDDGLECVPTGQHQVRMQILMIRYPSSQLGEMSLEEHSQCECRPKKKDSAVKPDRAATPHHRPQPRSVPGWDSAPGAPSPADITHPTPAPGPSAHAAPSTTSALTPGPAAAAADAAASSVAKGGA
notes: vascular endothelial growth factor B
B3: PDGF BB (ligand, UniProt P01127 82-190, looked up)
chain: SLGSLTIAEPAMIAECKTRTEVFEISRRLIDRTNANFLVWPPCVEVQRCSGCCNNRNVQCRPTQVQLRPVQVRKIEIVRKKPIFKKATVTLEDHLACKCETVAAARPVT
notes: platelet-derived growth factor B chain

What was measured:
Settings in all cases: both partners purified
56662 [1] = target: T1, 56662 (UniProt P17936-1 28-291); experiment: SPR; IGF binding protein or Fc fusion amine-coupled to a CM4 chip, growth factor as analyte; Biacore T100/T200; HBS-P, with 0.2 mg/ml BSA or 0.65 M NaCl to reduce non-specific binding; 25 °C; 1:1 binding fit
T1 construct: Fc dimer; also called BP3-Fc; IGFBP-3-Fc; source: 293T cells, transfected, conditioned medium, purified (protein A Sepharose); not shown: Fc (IgG1), C-terminal, kept

IGFBP-2 = target: T2, IGFBP-2 (UniProt P18065 36-325); experiment: as above
T2 sequence (looked up): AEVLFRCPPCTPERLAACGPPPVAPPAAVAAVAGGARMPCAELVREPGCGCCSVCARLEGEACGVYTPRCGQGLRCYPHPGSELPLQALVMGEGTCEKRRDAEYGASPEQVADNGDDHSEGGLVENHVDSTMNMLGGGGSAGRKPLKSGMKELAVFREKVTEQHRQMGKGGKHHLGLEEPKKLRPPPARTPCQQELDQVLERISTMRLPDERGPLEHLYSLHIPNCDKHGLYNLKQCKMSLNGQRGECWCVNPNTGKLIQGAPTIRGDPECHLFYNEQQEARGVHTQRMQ

IGFBP-3 = IGFBP-3 (UniProt P17936 28-291); experiment: as above
IGFBP-7 = target: T3, IGFBP-7 (UniProt Q16270 27-282); experiment: as above
T3 sequence (looked up): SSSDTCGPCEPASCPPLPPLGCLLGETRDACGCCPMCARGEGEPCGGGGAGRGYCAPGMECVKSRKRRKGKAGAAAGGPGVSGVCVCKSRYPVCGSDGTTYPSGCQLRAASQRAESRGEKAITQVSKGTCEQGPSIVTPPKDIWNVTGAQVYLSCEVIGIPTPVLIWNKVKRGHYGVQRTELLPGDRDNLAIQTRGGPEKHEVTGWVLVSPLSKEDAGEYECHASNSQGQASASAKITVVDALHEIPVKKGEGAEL

56662 [2] = target: T4, 56662 (UniProt P17936-1 28-291); experiment: SPR; IGF binding protein or Fc fusion amine-coupled to a CM4 chip, growth factor as analyte; Biacore T100 or T200, HBS-P, BSA (0.2 mg/ml) or NaCl (0.65 M final) to reduce non-specific binding, 25 °C; 1:1 binding analysis
T4 construct: the secretory signal peptide was derived from IGFBP-2; Fc portion of IgG1 added to the C terminus of IGFBP-3; called an Fc dimer; Probably the mature IGFBP-3 after removal of the IGFBP-2 signal peptide; also called IGFBP-3-Fc; BP3-Fc (unmodified IGFBP-3 Fc construct); source: 293 T cells, transfected; conditioned medium purified by proteinA Sepharose; not shown: Fc (IgG1), C-terminal, kept

56662 [3] = target: T4, 56662; experiment: SPR; growth factor immobilised on a CM4 chip instead of the binding protein (asterisk in Table 1), binding protein or Fc fusion as analyte; HBS-P, 25 °C; regeneration with 4 M MgCl2 then 5 M guanidinium chloride; 1:1 binding analysis
56662 [4] = target: T1, 56662; experiment: SPR; growth factor amine-coupled to a CM4 chip, Fc fusion as analyte (values marked * in Table 1); Biacore T100/T200; HBS-P, with 0.2 mg/ml BSA or 0.65 M NaCl to reduce non-specific binding; 25 °C; 1:1 binding fit
hepatocyte growth factor [5] = target: T5, hepatocyte growth factor (UniProt P14210 32-728); experiment: SPR; IGF binding protein or Fc fusion amine-coupled to a CM4 chip, growth factor as analyte; Biacore T100 or T200, HBS-P, BSA (0.2 mg/ml) or NaCl (0.65 M final) to reduce non-specific binding, 25 °C; 1:1 binding analysis
T5 construct: hepatocyte growth factor, commercial; Mature HGF is a two-chain (alpha/beta) product of one precursor; the preparation is said to hold both processed and unprocessed forms; also called HGF; source: expressed in insect cells
T5 sequence (P14210 32-728): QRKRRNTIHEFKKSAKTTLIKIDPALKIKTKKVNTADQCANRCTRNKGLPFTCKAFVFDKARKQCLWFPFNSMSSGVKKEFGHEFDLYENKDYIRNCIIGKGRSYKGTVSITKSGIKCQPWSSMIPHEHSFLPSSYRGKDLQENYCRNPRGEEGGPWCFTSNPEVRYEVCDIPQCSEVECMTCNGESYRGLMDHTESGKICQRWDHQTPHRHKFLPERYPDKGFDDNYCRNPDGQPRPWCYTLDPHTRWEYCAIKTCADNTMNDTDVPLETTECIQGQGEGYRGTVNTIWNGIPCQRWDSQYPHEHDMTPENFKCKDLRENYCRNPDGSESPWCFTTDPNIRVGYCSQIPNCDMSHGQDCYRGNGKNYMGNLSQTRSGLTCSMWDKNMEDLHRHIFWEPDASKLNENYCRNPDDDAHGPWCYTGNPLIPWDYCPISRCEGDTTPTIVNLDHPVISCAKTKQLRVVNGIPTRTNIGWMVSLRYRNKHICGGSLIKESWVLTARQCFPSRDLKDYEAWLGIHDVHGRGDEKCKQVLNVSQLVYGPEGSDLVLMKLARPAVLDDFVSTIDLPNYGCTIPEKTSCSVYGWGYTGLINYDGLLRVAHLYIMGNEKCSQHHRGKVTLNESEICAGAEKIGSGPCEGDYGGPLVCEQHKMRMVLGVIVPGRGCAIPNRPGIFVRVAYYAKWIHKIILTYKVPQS

bFGF = target: T6, bFGF (UniProt P09038 143-288); experiment: SPR; growth factor amine-coupled to a CM4 chip, Fc fusion as analyte (values marked * in Table 1); Biacore T100/T200; HBS-P, with 0.2 mg/ml BSA or 0.65 M NaCl to reduce non-specific binding; 25 °C; 1:1 binding fit
T6 construct: basic fibroblast growth factor; also called basic FGF

VEGF-B = target: B1; experiment: as above
hepatocyte growth factor [6] = target: T7, hepatocyte growth factor (UniProt P14210 32-728); experiment: as above
T7 construct: hepatocyte growth factor; also called HGF; source: bought
T7 sequence (P14210 32-728): as above

neuregulin-1 = neuregulin-1 (UniProt Q02297 20-241); experiment: as above
PDGF BB = target: B3; experiment: as above
[7] = target: T8, insulin-like growth factor-2 (UniProt P01344 25-91); experiment: SPR; IGF binding protein or Fc fusion amine-coupled to a CM4 chip, growth factor as analyte; Biacore T100/T200; HBS-P, with 0.2 mg/ml BSA or 0.65 M NaCl to reduce non-specific binding; 25 °C; 1:1 binding fit
T8 construct: insulin-like growth factor 2; also called IGF2; IGF-2

[8] = target: T9, insulin-like growth factor-1 (UniProt P05019 49-118); experiment: as above
T9 construct: insulin-like growth factor 1; also called IGF1; IGF-1

Chimera A = target: T10, Chimera A; experiment: SPR; growth factor amine-coupled to a CM4 chip, Fc fusion as analyte (values marked * in Table 1); Biacore T100/T200; HBS-P, with 0.2 mg/ml BSA or 0.65 M NaCl to reduce non-specific binding; 25 °C; 1:1 binding fit
T10 construct: VEGF receptor 1 domain 2, first part of VEGF-trap; VEGF receptor 2 domain 3, second part of VEGF-trap; VEGF-trap inserted between the IGFBP-3 and the Fc domain; Fc dimer; also called chA; BP3-VEGF-trap-Fc; source: 293T cells, transfected, conditioned medium, purified (protein A Sepharose); not shown: Fc (IgG1), C-terminal, kept
T10 sequence (Q02297 20-241, stated change not applied): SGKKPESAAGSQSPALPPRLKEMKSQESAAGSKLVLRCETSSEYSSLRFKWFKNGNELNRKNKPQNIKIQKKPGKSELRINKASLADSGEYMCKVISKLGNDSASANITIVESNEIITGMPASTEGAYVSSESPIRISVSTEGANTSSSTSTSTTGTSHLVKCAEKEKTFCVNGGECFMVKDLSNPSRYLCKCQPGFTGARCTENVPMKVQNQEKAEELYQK

T9 sequence (P05019 49-118): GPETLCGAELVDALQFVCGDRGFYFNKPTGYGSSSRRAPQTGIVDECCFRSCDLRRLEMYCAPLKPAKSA
Chain of neuregulin-1 (Q02297 20-241): as the sequence (Q02297 20-241, stated change not applied) above
T6 sequence (P09038 143-288): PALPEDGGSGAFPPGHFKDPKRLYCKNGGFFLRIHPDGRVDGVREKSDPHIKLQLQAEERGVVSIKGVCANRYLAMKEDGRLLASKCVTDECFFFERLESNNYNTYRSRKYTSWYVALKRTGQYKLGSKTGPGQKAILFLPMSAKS
T8 sequence (P01344 25-91): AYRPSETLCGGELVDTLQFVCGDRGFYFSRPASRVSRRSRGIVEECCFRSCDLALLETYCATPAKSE

B1 showed a koff 56662 [1] of 0.000284 s⁻¹, a kon 56662 [1] of 45000 M⁻¹ s⁻¹ and a koff (IGFBP-2) of 0.000441 s⁻¹. It also gave a kon (IGFBP-2) of 157000 M⁻¹ s⁻¹, a koff (IGFBP-3) of 0.000751 s⁻¹ and a kon (IGFBP-3) of 96600 M⁻¹ s⁻¹. The koff (IGFBP-7) was 0.00277 s⁻¹ and the kon (IGFBP-7) was 875000 M⁻¹ s⁻¹.

B2: PDGF BB (ligand, UniProt P01127 82-190, looked up)
chain: SLGSLTIAEPAMIAECKTRTEVFEISRRLIDRTNANFLVWPPCVEVQRCSGCCNNRNVQCRPTQVQLRPVQVRKIEIVRKKPIFKKATVTLEDHLACKCETVAAARPVT
notes: platelet-derived growth factor B chain; Homodimer of B chains by its name
With B2 the Kd 56662 [2] was 0.52 nM and the Kd 56662 [3] was 4.19 nM.

B3 was tested, and the koff 56662 [4] was 0.000562 s⁻¹ and the kon 56662 [4] was 259000 M⁻¹ s⁻¹.

B4: IGFBP-7 (natural protein, UniProt Q16270 27-282, looked up)
chain: SSSDTCGPCEPASCPPLPPLGCLLGETRDACGCCPMCARGEGEPCGGGGAGRGYCAPGMECVKSRKRRKGKAGAAAGGPGVSGVCVCKSRYPVCGSDGTTYPSGCQLRAASQRAESRGEKAITQVSKGTCEQGPSIVTPPKDIWNVTGAQVYLSCEVIGIPTPVLIWNKVKRGHYGVQRTELLPGDRDNLAIQTRGGPEKHEVTGWVLVSPLSKEDAGEYECHASNSQGQASASAKITVVDALHEIPVKKGEGAEL
notes: source: bought (commercially available, carrier-free)
B4: binds (hepatocyte growth factor [5]).

B5: D3 (Fc fusion)
chain: GASSAGLGPVVRCEPCDARALAQCAPPPAVCAELVREPGCGCCLTCALSEGQPCGIYTERCGSGLRCQPSPDEARPLQALLDGRGLCVNASAVSRPAPPAPGNASESEEDRSAGSVESPSVSSTHRVSDPKFHPKGHAKVDYESQSTDTQNFSSESKRETEYGPCRREMEDTLNHLKFLNVLSPRGVHIPNCDKKGFYKKKQCRPSKGRKRGFCWCVDKYGQPLPGYTTKGKEDVHCYSMQSK
modifications: Secreted Fc-fusion dimer; Fc omitted. Deletions 121-126, 166-174 and 180-185 are in 56662 precursor numbering (UniProt = construct + 2; the offset agrees with the H3t33-type deletion printed in …)
B5 gave a koff (bFGF) of 0.000529 s⁻¹, a kon (bFGF) of 161000 M⁻¹ s⁻¹ and a koff (VEGF-B) of 0.000445 s⁻¹. For the same binder, the kon (VEGF-B) was 25000 M⁻¹ s⁻¹, the koff (hepatocyte growth factor [6]) was 0.000291 s⁻¹ and the kon (hepatocyte growth factor [6]) was 110000 M⁻¹ s⁻¹. It also gave a koff (neuregulin-1) of 0.00053 s⁻¹, a kon (neuregulin-1) of 270000 M⁻¹ s⁻¹ and a koff (PDGF BB) of 0.00175 s⁻¹. For the same binder, the kon (PDGF BB) was 550000 M⁻¹ s⁻¹, the koff [7] was 0.00185 s⁻¹ and the kon [7] was 8.25e+06 M⁻¹ s⁻¹. For the same binder, the koff [8] was 8.36e-05 s⁻¹ and the kon [8] was 163000 M⁻¹ s⁻¹.

B6: neuregulin-1 (ligand)
chain: SERKEGRGKGKGKKKERGSGKKPESAAGSQSPALPPRLKEMKSQESAAGSKLVLRCETSSEYSSLRFKWFKNGNELNRKNKPQNIKIQKKPGKSELRINKASLADSGEYMCKVISKLGNDSASANITIVESNEIITGMPASTEGAYVSSESPIRISVSTEGANTSSSTSTSTTGTSHLVKCAEKEKTFCVNGGECFMVKDLSNPSRYLCKCPNEFTGDRCQNYVMASFYKHLGIEFMEAEELYQK
modifications: R&D 377-HB, neuregulin extracellular domain, taken as NRG1-beta1 Ser2-Lys246; the paper prints only the catalogue number and 'extracellular domain'.
B6 showed a koff 56662 [4] of 0.00443 s⁻¹, a kon 56662 [4] of 481000 M⁻¹ s⁻¹ and a koff (Chimera A) of 0.000291 s⁻¹. For the same binder, the kon (Chimera A) was 394000 M⁻¹ s⁻¹, the koff (IGFBP-3) was 0.000883 s⁻¹ and the kon (IGFBP-3) was 425000 M⁻¹ s⁻¹. The koff (IGFBP-7) was 0.00129 s⁻¹ and the kon (IGFBP-7) was 800 M⁻¹ s⁻¹.

— article PMC7026407, “Multiple Growth Factor Targeting by Engineered Insulin-like Growth Factor Binding Protein-3 Augments EGF Receptor Tyrosine Kinase Inhibitor Efficacy” (Scientific Reports, 2020)
